The target in assay [1] is SARS-CoV-2 RBD, His6-tagged, for biolayer interferometry (SARS-CoV-2, UniProt P0DTC2). Put plainly: BLI. As to conditions: both partners purified.
In assay [2] the target is Avi-tag biotinylated RBD of SARS-CoV-2 S protein (SARS-CoV-2, UniProt P0DTC2). The experiment in a line: flow cytometry on cells. As to conditions: both partners purified.

The values that follow come from PMC8064889 (Cell Reports, 2021).

B1: 47D1 IgG (antibody, V domains shown)
VH: QVQLVQSGAEVKKPGSSVRVSCKASGGTFSTYPISWVRQAPGQGLEWMGGIIPIFGTAKSAQKFQGRVTITADEFTSTAYMEMSSLRSEDTAMYYCAREGRRYGSGWYISTGYFDYWGQGTLVTVSS
VL: QLVLTQPASVSGSPGQSIIVSCTGTSSDVGGYKFVSWYQQHPGKAPRVMIYDVSNRPSGVSNRFSGSKSGNTASLTISGLQADDEADYYCSSYTNSSTVVFGGGTKVTVL
On to B1, for which the binding result in assay [1] and in assay [2] was “binds” throughout.
